In patent US20080125498A1, “TREATMENT OF NEURODEGENERATIVE DISEASES AND CONDITIONS USING PAR1 ANTAGONISTS” (priority 2001, published 2008):

Experiments:
Test in all cases: cell-based or functional assay
[1] = molecular target: protease-activated receptor 1 (PAR1), rat, endogenous in hippocampal neurons (rat) (UniProt P26824)
[2] = molecular target: recombinant NR1 subunit in NR1/NR2A and NR1/NR2B NMDA receptors expressed in Xenopus oocytes
alpha-thrombin = molecular target: alpha-thrombin

Sequence of protease-activated receptor 1 (PAR1), rat, endogenous in hippocampal neurons (rat) (P26824 46-432): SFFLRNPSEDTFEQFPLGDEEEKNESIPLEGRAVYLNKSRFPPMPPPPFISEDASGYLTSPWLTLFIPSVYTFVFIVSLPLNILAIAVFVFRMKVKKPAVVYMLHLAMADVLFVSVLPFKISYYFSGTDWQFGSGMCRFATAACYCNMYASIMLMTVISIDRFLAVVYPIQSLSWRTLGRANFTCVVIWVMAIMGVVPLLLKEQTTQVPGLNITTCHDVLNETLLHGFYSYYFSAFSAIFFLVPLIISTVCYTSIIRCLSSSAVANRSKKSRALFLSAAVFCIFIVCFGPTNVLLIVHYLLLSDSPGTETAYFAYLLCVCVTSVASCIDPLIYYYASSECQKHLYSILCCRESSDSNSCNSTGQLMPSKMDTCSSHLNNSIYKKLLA

average peak potentiation of NMDA responses in CA1 pyramidal cells at -40 mV in 1.4 mM Mg2+ [1]	average peak potentiation of NMDA responses in CA1 pyramidal cells at -70 mV in 1.4 mM Mg2+ [1]	peak potentiation of NMDA responses at -70 mV in CA1 pyramidal neurons [1]	NMDA receptor current response amplitude in oocytes after 300-1000 nM thrombin for 60 minutes [2]	potentiation by thrombin of NMDA responses in the presence of hirudin (alpha-thrombin)	Substance
1.48 fold	2.1 fold	2.07 fold	42%	–	alpha-thrombin (enzyme)
–	–	–	–	0.96 fold	hirudin
